Results on 10 substances are retold here after patent publication US6333311.

Experiment [1] deals with Jurkat cell 105 kD lactoferrin receptor (human). Nature of the experiment: Scatchard analysis, 125I-labelled protein on whole Jurkat cells (species comparison).
Experiment [2] addresses HT-29 cells (human colon carcinoma cell line). Nature of the experiment: Scatchard analysis, 125I-labelled lactoferrin on HT-29 cells; High affinity (nM).
For experiment [3], the target named is Jurkat cell 105 kD lactoferrin receptor (human). Nature of the experiment: Scatchard analysis, 125I-labelled protein on whole Jurkat cells.
In experiment [4] the target is human lysozyme (human) (UniProt P61626). Nature of the experiment: solid-phase ligand binding ELISA on hLZ-coated plates; percent of the response with natural hLF. (In general: In an ELISA, binding on a coated surface is turned into a signal by an enzyme label.)
Experiment [5] has the same target. Nature of the experiment: solid-phase ligand binding ELISA on hLZ-coated plates.
For experiment [6], the target named is HT-29 cells (human colon carcinoma cell line). Nature of the experiment: Scatchard analysis, 125I-labelled lactoferrin on HT-29 cells; High affinity (nM); the cell wraps into r15 (8^a)).
Experiment [7] addresses Jurkat cell 105 kD lactoferrin receptor (human). Nature of the experiment: Scatchard analysis, Jurkat cells cultured 24 h with 30 mM sodium chlorate.
Experiment [8] has as its target HT-29 cells (human colon carcinoma cell line). Nature of the experiment: Scatchard analysis, 125I-labelled lactoferrin on HT-29 cells; column Total affinity (µM); high affinity binding lost (--).
Experiment [9] has the same target. Nature of the experiment: Scatchard analysis, 125I-labelled lactoferrin on HT-29 cells; column Total affinity (µM); high affinity binding lost (--); one experiment.
For experiment [10], the target named is Jurkat cell 105 kD lactoferrin receptor (human). Nature of the experiment: Scatchard analysis, 125I-hLf on Jurkat cells cultured without sodium chlorate.
For experiment [11] the target is unchanged. Nature of the experiment: Scatchard analysis, 125I-hLf on Jurkat cells cultured 24 h with 30 mM sodium chlorate.

Chain of bovine lactoferrin (P24627 20-708 limits assumed): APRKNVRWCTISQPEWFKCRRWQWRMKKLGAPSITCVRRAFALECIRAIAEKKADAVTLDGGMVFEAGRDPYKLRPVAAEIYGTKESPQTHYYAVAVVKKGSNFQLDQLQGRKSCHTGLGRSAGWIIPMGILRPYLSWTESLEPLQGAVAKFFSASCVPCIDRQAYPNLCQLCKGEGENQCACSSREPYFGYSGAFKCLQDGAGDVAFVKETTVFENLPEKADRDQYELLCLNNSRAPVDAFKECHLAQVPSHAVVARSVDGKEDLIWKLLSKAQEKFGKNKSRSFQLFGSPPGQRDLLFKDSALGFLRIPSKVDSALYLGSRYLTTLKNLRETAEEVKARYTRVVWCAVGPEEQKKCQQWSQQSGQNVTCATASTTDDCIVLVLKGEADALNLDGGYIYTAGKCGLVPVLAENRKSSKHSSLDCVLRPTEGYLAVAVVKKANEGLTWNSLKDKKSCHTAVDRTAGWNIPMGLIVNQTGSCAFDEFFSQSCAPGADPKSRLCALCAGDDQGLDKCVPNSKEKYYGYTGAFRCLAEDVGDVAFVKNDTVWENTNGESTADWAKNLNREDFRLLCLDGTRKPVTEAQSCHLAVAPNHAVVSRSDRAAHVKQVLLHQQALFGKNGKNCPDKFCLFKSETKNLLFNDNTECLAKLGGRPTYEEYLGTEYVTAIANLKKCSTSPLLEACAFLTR

A word on the Kd: it is a measure of binding affinity in units of concentration. On to “bovine lactoferrin (from UniProt P24627) (ligand)”, for which the Kd in experiment [1] stood at 60 nM; in experiment [2], 81 nM.

In the case of hLF^-2N (from UniProt P02788) (ligand), the figures for the Kd in experiment [3] and in experiment [6] were 65 nM and 124 nM, respectively. Besides, the Reactivity (%) with human lysozyme (human) [4] turned out to be 37.5%. Besides, in the experiment with human lysozyme (human) [5], the fold lower affinity than N-terminally intact hLF was 3 fold lower.

Regarding hLF^-3N (from UniProt P02788) (ligand), the dissociation constant Kd came to 57 nM in [3], 57.2 nM in experiment [7] and 1700 nM in [8]. The Reactivity (%) with human lysozyme (human) [4] was 5.1%. In addition, the fold lower affinity than N-terminally intact hLF with human lysozyme (human) [5] was found to be 17 fold lower.

hLF^-4N (from UniProt P02788) (ligand): the dissociation constant Kd in [3] was 41 nM; in experiment [9], 700 nM.

In experiment [2], “iron-saturated human lactoferrin (from UniProt P02788) (ligand)” yielded a Kd of 66 nM.

In experiment [1], “murine lactoferrin (from UniProt P08071) (ligand)” yielded a Kd of 31 nM.

With “natural human lactoferrin (from UniProt P02788) (ligand)”, the dissociation constant Kd in [10] was 71.1 nM; in [1] it was 60 nM; in experiment [3], 69 nM; in experiment [2], 74 nM; in experiment [11], 62.6 nM.

Substance “non-modified recombinant human lactoferrin (from UniProt P02788) (ligand)” yielded a Kd in experiment [3] of 81 nM.

rhLF^-5N (ligand): the Kd in experiment [3] is 12.4 nM; in experiment [7], 27.9 nM.

Regarding “transgenic hLF isolated from milk of a transgenic bovine (from UniProt P02788) (ligand)”, in [2], the Kd is 88 nM.
